Where “and” joins values, the source holds several entries; their conditions need not be identical. Equal entries are not always repeated.
B1: recombinant human IL4 (non-glycosylated, produced in E. coli) (ligand, UniProt P05112 25-153, looked up)
chain: HKCDITLQEIIKTLNSLTEQKTLCTELTVTDIFAASKNTTEKETFCRAATVLRQFYSHHEKDTRCLGATAQQFHRHKQLIRFLKRLDRNLWGLAGLNSCPVKEANQSTLENFLERLKTIMREKYSKCSS
notes: also called hIL4; hIL-4
B2: humanized 3B9 (IgG4 variant) (antibody, V domains shown)
VH: QVTLRESGPALVKPTQTLTLTCTFSGFSLSTSGMGVSWIRQPPGKGLEWLAHIYWDDDKRYNPSLKSRLTISKDTSRNQVVLTMTNMDPVDTATYYCARRETVFYWYFDVWGRGTPVTVSS
VL: IVMTQSPDSLAVSLGERATINCKASQSVDYDGDSYMNWYQQKPGQPPKLLIYAASNLESGVPDRFSGSGSGTDFTLTISSLQAEDVAVYYCQQSNEDPPRFGGGTKVEIKR
B3: humanized 3B9 (IgG1) (antibody, V domains shown)
VH: B2 VH
VL: B2 VL
notes: Human IgG1 heavy constant region and human kappa constant region; also called humanized MAb 3B9; 3B9 (Humanized)

Assays:
[1] = target: T1, IL4 receptor on the gibbon cell line MLA [ATCC TIB201] (gibbon); experiment: displacement of 125I-rhIL4 (83 pM) from gibbon MLA cells
T1 construct: whole, on cells; also called its receptor
Protocol: The ability of 3B9 to inhibit the binding of IL4 to its receptor was studied using ¹²⁵I-rhIL4 binding to the gibbon cell line, MLA [ATCC TIB201], that bears approximately 6000 receptors per cell. MLA cells were incubated with […] for 30 minutes at 37° C. Uptake of radioactivity was determined in a gamma counter after separation of cell bound ¹²⁵I-IL4 by centrifugation through an oil-gradient. Non-specific binding was determined by incubating in the presence of a 100-fold molar excess of unlabelled IL4 [Park et al, J. Exp. Med., 166:476-488 (1987)]. The IC₅₀ value for unlabeled IL4 in this assay was 22 pM when the amount of (added) IL4 was 83 pM. For intact murine (IgG) 3B9 the IC₅₀ was 63 pM, and 93 pM for the Fab fragment.

[2] = target: B1; experiment: cell-based or functional assay
[3] = target: B1; experiment: titration microcalorimetry, pH 7.4, 150 mM NaCl, 25° C.
Protocol: (§1) The affinity and detailed thermodynamics of IL4 binding to humanized MAb 3B9 and murine 3B9 (Example 1) were determined by titration microcalorimetry.

[4] = target: B1; experiment: titration microcalorimetry, calculated for pH 7.4, 150 mM NaCl, 25° C. by the Gibbs-Helmholz equation
Protocol: as §1

Row | IC50 [1] | IC50, B cell proliferation [2] | IC50, IgE synthesis [2] | IC50, T cell proliferation [2] | IC50, CD23 induction [2] | -TΔS [3] | ΔG [3] | ΔH [3] | Kd [4] | Binder
1 | 22 pM | – | – | – | – | – | – | – | – | B1
2 | – | 79 pM | 406 pM | 40 pM | – | – | – | – | – | B2
3 | – | – | 54 pM and 35 pM and 83 pM | 44 pM and 30 pM and 56 pM | 333 pM | 8.2 kcal/mol IL4 | -13.6 kcal/mol IL4 | -21.8 kcal/mol IL4 | 11 pM | B3

Reference: patent US20050002959A1 (GlaxoSmithKline, published 2005)
